Reference: patent US20090226442A1 (published 2009)
Residue numbers refer to the chain shown, from its start.

B1: 1P2E7 murine monoclonal anti-RON antibody (antibody, V domains shown)
VH: DVQLQESGPGLVKPSQSLSLTCTVTGDSITSDYAWNWIRQFPGNKLEWMGYISYSGSTSYNPSLKSRFSITRDTSKNQFFLQLNSVTTEDSATYYCARGGFYYRYAGPGFAYWGQGTLVTVSA
VL: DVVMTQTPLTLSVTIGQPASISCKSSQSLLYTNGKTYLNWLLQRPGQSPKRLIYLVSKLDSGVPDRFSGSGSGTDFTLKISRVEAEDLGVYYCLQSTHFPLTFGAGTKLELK
B2: 1P5B10 murine monoclonal anti-RON antibody (antibody, V domains shown)
VH: EVQLQQSGPELVKPGASMKISCRAAGFSFTGYTMNWVKQSHGKSLEWIGLINLNNGGTSHNQKFKGKATLTVDKSSSTAYMELLSLTSEDSAVYYCARWLRRGGYAMDYWGQGISVTVSS
VL: DILLTQSPAILSVSPGERVSFSCRASQNIGTSIHWYQQRTNGSPRLLIKYASESISGIPSRFSGSGSGTDFTLSINSVESEDIADYYCQQSDSWPLTFGAGTKLELK
B3: 1P4A12 murine monoclonal anti-RON antibody (antibody, V domains shown)
VH: B2 VH with R23K, A25S, F27Y, S44K, L53P, N54Y, S59I, H60Y, I114A
VL: B2 VL with N28S, Y50F, L106V
B4: 1P3B2 murine monoclonal anti-RON antibody (antibody, V domains shown)
VH: EVQLQQSGPELEKPGASVKISCKASGYSFTGYNMNWVKQSNGESLEWIGDIDPYYGGTRYNQKFKGKATLTVDKSSSTAYMQLKSLTSEDSAVYYCAREGRGFAYWGQGTLVTVSA
VL: DIQMTQSPASLSASVGETVTITCRASENIYSYLAWYQKKQGKSPQLLVYNAKTSVEGVPSRFSGSGSGIQFSLKINSLQPEDFGSYYCHCQHHYGTLPTFGGGTKLEIK
B5: 1P4A3 murine monoclonal anti-RON antibody (antibody, V domains shown)
VH: B4 VH with K19M, N41T, E43K, G56D, V72A, A97T
VL: DIQMTQSPASLSASVGETVTITCRASENIYSYLAWYQQKQGKSPQLLVYNAKTLAGGVPSRFSGSGSGTQFSLKINSLQPEDFGSYYCQHYYGTPLTFGAGTKLELK
B6: human macrophage stimulating protein (MSP) (R&D Systems cat. #4306-MS) (ligand)
chain: QRSPLNDFQVLRGTELQHLLHAVVPGPWQEDVADAEECAGRCGPLMDCRAFHYNVSSHGCQLLPWTQHSPHTRLRRSGRCDLFQKKDYVRTCIMNNGVGYRGTMATTVGGLPCQAWSHKFPNDHKYTPTLRNGLEENFCRNPDGDPGGPWCYTTDPAVRFQSCGIKSCREAACVWCNGEEYRGAVDRTESGRECQRWDLQHPHQHPFEPGKFLDQGLDDNYCRNPDGSERPWCYTTDPQIEREFCDLPRCGSEAQPRQEATTVSCFRGKGEGYRGTANTTTAGVPCQRWDAQIPHQHRFTPEKYACKDLRENFCRNPDGSEAPWCFTLRPGMRAAFCYQIRRCTDDVRPQDCYHGAGEQYRGTVSKTRKGVQCQRWSAETPHKPQFTFTSEPHAQLEENFCRNPDGDSHGPWCYTMDPRTPFDYCALRRCADDQPPSILDPPDQVQFEKCGKRVDRLDQRRSKLRVVGGHPGNSPWTVSLRNRQGQHFCGGSLVKEQWILTARQCFSSCHMPLTGYEVWLGTLFQNPQHGEPSLQRVPVAKMVCGPSGSQLVLLKLERSVTLNQRVALICLPPEWYVVPPGTKCEIAGWGETKGTGNDTVLNVALLNVISNQECNIKHRGRVRESEMCTEGLLAPVGACEGDYGGPLACFTHNCWVLEGIIIPNRVCARSRWPAVFTRVSVFVDWIHKVMRLG

Molecular target: T1, soluble cynomolgus (Macaca fascicularis) RON protein (cynomolgus (Macaca fascicularis), UniProt A0A2K5VT07 25-571)
T1 chain: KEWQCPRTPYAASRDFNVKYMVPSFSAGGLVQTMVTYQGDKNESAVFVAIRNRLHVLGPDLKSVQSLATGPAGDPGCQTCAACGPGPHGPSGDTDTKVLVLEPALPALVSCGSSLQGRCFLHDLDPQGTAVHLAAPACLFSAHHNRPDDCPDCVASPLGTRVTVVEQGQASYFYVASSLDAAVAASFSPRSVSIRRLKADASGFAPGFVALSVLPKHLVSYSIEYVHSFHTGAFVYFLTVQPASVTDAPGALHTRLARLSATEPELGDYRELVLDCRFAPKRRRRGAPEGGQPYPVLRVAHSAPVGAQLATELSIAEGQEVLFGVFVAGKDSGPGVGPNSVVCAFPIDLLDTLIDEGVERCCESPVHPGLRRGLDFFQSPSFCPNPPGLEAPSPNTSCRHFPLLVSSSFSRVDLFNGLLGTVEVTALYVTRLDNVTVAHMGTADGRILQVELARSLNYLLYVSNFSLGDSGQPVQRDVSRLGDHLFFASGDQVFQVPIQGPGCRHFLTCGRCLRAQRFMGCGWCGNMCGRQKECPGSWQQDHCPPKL
Experiment: ELISA; 4-P fit C

Binder | EC50 [ng/mL]
B1 | 2
B2 | 2
B3 | 5
B4 | 10
B5 | 3

molecular target: T2, soluble human RON protein (R&D Systems, catalog 1947) (UniProt Q04912 25-571); experiment: ELISA; 4-P fit C
T2 sequence (Q04912 25-571): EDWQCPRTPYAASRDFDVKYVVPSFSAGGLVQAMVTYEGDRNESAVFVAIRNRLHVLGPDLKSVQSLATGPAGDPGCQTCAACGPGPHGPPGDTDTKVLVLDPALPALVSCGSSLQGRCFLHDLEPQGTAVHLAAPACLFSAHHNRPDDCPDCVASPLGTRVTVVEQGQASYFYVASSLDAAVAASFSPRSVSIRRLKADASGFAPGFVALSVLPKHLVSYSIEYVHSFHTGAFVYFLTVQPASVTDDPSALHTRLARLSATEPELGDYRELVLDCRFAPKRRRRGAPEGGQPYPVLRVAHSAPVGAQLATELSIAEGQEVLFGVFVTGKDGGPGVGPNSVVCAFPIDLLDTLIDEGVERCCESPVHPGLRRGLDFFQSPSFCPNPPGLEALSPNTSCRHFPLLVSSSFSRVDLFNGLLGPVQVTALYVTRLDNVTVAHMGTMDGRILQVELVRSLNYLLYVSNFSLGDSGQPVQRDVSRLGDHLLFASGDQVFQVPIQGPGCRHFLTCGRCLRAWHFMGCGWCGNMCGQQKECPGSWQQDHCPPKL

Binder | EC50 [ng/mL]
B1 | 0.736
B2 | 1
B3 | 2
B5 | 3

Molecular target: T1, soluble cynomolgus (Macaca …)
Experiment: ELISA; 4-P fit C
Remark: another data set of the same source

Binder | EC50 [µg/mL]
B6 | 0.038

molecular target: T2, soluble human RON protein (R&D Systems, …); experiment: ELISA; 4-P fit C; remark: another data set of the same source

Binder | EC50 [µg/mL]
B6 | 0.03

molecular target: human RON (recepteur d'origine nantais, MST1R), full length, expressed on cells (UniProt Q04912 25-1400); experiment: FACS
Sequence (Q04912 25-1400): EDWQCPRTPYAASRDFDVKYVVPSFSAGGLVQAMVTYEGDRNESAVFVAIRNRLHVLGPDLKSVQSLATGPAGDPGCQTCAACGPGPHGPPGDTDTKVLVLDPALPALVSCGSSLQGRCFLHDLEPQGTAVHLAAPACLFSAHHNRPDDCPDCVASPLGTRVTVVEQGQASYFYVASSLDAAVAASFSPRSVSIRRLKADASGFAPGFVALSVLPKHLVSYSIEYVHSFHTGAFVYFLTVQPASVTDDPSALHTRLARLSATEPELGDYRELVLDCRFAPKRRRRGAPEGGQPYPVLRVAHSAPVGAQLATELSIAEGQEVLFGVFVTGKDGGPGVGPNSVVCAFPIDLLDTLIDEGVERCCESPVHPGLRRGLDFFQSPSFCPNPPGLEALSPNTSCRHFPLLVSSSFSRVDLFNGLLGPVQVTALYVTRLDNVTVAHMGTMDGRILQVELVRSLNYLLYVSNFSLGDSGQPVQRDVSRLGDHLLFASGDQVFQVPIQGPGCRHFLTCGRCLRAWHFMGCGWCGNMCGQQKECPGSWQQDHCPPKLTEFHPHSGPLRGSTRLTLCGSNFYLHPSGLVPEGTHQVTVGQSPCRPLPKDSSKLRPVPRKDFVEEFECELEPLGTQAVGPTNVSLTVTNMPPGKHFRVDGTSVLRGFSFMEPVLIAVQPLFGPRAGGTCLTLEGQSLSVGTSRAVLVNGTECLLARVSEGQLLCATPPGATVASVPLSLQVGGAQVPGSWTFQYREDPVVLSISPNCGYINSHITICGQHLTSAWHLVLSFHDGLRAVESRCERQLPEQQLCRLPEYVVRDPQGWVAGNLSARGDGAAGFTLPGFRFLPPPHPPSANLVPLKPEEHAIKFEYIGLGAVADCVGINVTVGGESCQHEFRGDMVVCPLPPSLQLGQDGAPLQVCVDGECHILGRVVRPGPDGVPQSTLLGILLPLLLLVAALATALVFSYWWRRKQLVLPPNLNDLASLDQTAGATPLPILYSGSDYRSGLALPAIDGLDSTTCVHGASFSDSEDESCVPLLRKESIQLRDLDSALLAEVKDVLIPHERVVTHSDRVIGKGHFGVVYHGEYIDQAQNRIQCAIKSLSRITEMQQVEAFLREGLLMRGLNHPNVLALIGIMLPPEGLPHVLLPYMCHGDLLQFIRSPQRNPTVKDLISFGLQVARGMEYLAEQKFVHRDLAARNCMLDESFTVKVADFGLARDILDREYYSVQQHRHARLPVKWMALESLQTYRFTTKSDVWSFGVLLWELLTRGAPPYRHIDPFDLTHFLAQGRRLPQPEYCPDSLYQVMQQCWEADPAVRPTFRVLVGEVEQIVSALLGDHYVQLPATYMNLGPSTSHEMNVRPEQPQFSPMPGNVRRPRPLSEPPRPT

Binder | EC50 [µg/mL]
B1 | 0.013
B2 | 0.051
B3 | 0.01
B4 | 0.006
B5 | 0.011

molecular target: T2, soluble human RON protein (R&D Systems, …); experiment: ELISA

Binder | EC50 [µg/mL]
B1 | 0.018
B2 | 0.013
B3 | 0.016
B4 | 0.011
B5 | 0.018
